In paper PMC11154709, “4S-fluorination of ProB29 in insulin lispro slows fibril formation” (The Journal of Biological Chemistry, 2024):

Assay: Far-UV circular dichroism (secondary structure)
Type: physicochemical
Settings: 60 μM; statement in discussion of CD spectra
Protocol: Figure 2 Biological activity and CD spectroscopy of lispro variants.A, lispros were injected subcutaneously into diabetic mice, and blood glucose was measured over time after injection. The data presented here represent the mean ± SD of 3 to 6 biological replicates. B–E, far-UV circular dichroism spectra (60 μM lispro in […] phosphate buffer, pH 8.0). […] 4R-F, 4R-fluoroproline; 4S-F, 4S-fluoroproline.
The secondary structure of each insulin lispro variant was probed by circular dichroism spectroscopy. […] All lispro samples were further analyzed by analytical ultracentrifugation (Fig. S3). To determine the dissociation constant of each variant, we fit the data to a reversible monomer-dimer equilibrium ([29]). […]
Circular dichroism spectroscopy:
Equilibrium measurements: The circular dichroism spectra of insulin or lispro samples (60 µM in
100 mM sodium phosphate, pH 8.0) were measured at 25°C in 1 mm quartz cuvettes using a step
size of 0.5 nm and averaging time of 1 s on an Aviv Model 430 Circular Dichroism
Spectrophotom eter. A reference buffer spectrum was subtracted from each sample spectrum. […]
Analytical ultracentrifugation: […]

## human insulin: 5.8 kDa peptide hormone composed of two disulfide-linked chains (A and B)
  oligomeric state at 60 μM: exists as a dimer at 60 μM
